From patent US20160177397, “APTAMER FOR DETECTION OF ALPHA-METHYLACYL-COA RACEMASE AND DIAGNOSTIC KIT THEREOF” (NATIONAL TAIWAN UNIVERSITY, published 2016) come the findings set out here.

The target of data set [1] is T1, AMACR (alpha-methylacyl-CoA racemase, isoform CRA_c), homemade recombinant (Homo sapiens, UniProt Q9UHK6 Q9UHK6:1-382).
T1 sequence: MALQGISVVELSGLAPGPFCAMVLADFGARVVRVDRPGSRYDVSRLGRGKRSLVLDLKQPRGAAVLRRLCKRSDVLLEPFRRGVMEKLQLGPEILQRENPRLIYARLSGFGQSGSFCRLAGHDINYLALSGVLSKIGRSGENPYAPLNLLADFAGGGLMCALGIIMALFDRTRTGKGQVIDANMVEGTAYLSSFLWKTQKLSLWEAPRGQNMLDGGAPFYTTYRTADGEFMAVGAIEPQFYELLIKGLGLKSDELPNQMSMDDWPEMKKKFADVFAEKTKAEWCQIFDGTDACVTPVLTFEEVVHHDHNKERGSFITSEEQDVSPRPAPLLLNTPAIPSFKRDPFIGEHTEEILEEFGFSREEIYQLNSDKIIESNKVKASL
Description: apparent Kd; fluorescent ELAA, same buffer, room temperature. The note with it: label: biotin; stem-loops, B-form-like CD. How it is done: (§1) Enzyme-linked aptamer assays with typical black opaque 96-well polystyrene microtiter plates that resembled ELISA assays were carried out for (1) assessment of the affinity and specificity of the selected AMACR binding aptamers and (2) proof-of-concept fluorescent AMACR detection using aptamers. For the first task, varied concentrations of aptamers were tested with a constant protein concentration ([…]); for the second task, varied concentrations of proteins were detected using a constant aptamer concentration (500 nM). Both used the following ELAA protocol unless otherwise noted. For protein coating, AMACR diluted in 0.05 M sodium carbonate buffer (pH9.6) was added to the wells of the plates (100 μL/well) and incubated at 4° C. overnight. After incubation, the wells were washed three times with 200 μL/well of selection buffer containing 0.05% Tween 20. For blocking, each AMACR-coated well was added with 200 μL of 3 wt % BSA in the selection buffer containing 0.05% Tween 20 and was then incubated at 37° C. for 2 h. Afterward, wells were washed as previously described. Before protein assays, biotin-labeled aptamer sequences were suspended in the selection buffer, heated to 95° C. for 5 min, and gradually cooled to 25° C. […] Finally, the fluorescent signal of each well was read by a fluorescent microplate reader (excitation at 435 nm and emission at 555 nm). […]

For data set [2], the target named is T2, Human serum albumin (HSA) (Homo sapiens, UniProt P02768 P02768:25-609). Description: ELAA, 0.5 uM aptamer, 0.2 uM protein. As to conditions: tags: Sigma-Aldrich; label: biotin; stem-loops, B-form-like CD. How it is done: (§2) Enzyme-linked aptamer assays with typical black opaque 96-well polystyrene microtiter plates that resembled ELISA assays were carried out for (1) assessment of the affinity and specificity of the selected AMACR binding aptamers and (2) proof-of-concept fluorescent AMACR detection using aptamers. For the first task, varied concentrations of aptamers were tested with a constant protein concentration ([…]); for the second task, varied concentrations of proteins were detected using a constant aptamer concentration (500 nM). Both used the following ELAA protocol unless otherwise noted. For protein coating, AMACR diluted in 0.05 M sodium carbonate buffer (pH9.6) was added to the wells of the plates (100 μL/well) and incubated at 4° C. overnight. After incubation, the wells were washed three times with 200 μL/well of selection buffer containing 0.05% Tween 20. For blocking, each AMACR-coated well was added with 200 μL of 3 wt % BSA in the selection buffer containing 0.05% Tween 20 and was then incubated at 37° C. for 2 h. Afterward, wells were washed as previously described. Before protein assays, biotin-labeled aptamer sequences were suspended in the selection buffer, heated to 95° C. for 5 min, and gradually cooled to 25° C. Then each protein-coated well was added with 100 μL of aptamer solution (in the selection buffer) and was incubated at room temperature for 1 h followed by the same wash procedure. After that, each well was added with two drops (ca. 100 μL) of an alkaline phosphatase-conjugated streptavidin (Strep-AP) solution (0.003 mg/mL) (Abcam) and incubated at room temperature for 30 min followed by the washes. For fluorescent signal development, each well was added with 100 μL of AttoPhos® AP fluorescent substrate solution (Promega) and incubated in dark for at least 15 min. Finally, the fluorescent signal of each well was read by a fluorescent microplate reader (excitation at 435 nm and emission at 555 nm).
(§3) FIG. 5A represented the results of the equilibrium AMACR total binding assays using the fluorescent ELAA format for AMC51, AMC55, and AMC56.

Data set [3] has as its target Bovine serum albumin (BSA) (Bos taurus, UniProt P02769 P02769:25-607). Description: ELAA, 0.5 uM aptamer, 0.2 uM protein. The note with it: tags: Sigma-Aldrich; label: biotin; stem-loops, B-form-like CD. How it is done:
as §2, §3

Data set [4] deals with T2, Human serum albumin (HSA). Description: ELAA, 0.5 uM aptamer, 0.2 uM protein; also no significant cross-reactivity in FIG. 6 dose series. The note with it: tags: Sigma-Aldrich; label: biotin; stem-loops, B-form-like CD. How it is done: as §1
Data set [5] deals with T1, AMACR (alpha-methylacyl-CoA racemase, …). Description: apparent Kd; fluorescent ELAA, AMACR coated at 0.2 uM; 50 mM Tris/HCl, 100 mM NaCl, 4 mM KCl, 2.5 mM MgCl2, 1 mM CaCl2, pH 7.4, room temperature. The note with it: label: biotin; stem-loops, B-form-like CD. How it is done:
as §1

T2 sequence (P02768 25-609, one chain of several): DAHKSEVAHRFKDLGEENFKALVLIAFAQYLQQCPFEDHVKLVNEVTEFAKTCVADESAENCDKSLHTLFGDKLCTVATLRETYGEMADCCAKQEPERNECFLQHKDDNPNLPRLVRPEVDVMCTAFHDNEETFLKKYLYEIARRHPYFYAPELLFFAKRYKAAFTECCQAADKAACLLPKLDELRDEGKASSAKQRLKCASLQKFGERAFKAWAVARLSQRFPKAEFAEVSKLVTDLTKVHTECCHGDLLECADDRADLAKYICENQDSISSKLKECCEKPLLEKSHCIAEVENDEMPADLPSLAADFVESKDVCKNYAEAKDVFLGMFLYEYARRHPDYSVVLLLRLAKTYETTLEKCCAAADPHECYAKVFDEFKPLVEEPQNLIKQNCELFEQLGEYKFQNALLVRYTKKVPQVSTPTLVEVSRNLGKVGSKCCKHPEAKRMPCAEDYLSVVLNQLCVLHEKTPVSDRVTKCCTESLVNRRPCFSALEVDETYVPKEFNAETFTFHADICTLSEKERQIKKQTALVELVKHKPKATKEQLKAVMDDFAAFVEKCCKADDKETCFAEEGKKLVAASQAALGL
Chain of Bovine serum albumin (BSA) (P02769 25-607, one chain of several): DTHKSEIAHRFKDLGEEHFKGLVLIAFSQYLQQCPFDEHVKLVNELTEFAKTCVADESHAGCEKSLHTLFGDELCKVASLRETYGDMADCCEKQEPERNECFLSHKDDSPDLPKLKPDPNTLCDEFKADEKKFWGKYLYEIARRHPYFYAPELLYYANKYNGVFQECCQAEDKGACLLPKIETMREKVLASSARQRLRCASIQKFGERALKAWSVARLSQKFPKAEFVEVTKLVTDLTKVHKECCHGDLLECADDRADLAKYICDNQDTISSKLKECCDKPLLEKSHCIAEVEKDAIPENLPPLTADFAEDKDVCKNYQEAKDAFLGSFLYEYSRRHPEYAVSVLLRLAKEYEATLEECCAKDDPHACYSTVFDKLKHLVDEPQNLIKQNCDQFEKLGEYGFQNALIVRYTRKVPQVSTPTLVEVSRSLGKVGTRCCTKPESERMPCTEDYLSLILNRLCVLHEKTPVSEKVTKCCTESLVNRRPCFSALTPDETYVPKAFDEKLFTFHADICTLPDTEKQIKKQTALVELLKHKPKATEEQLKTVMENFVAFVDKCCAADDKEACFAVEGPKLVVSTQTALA

B1: AMC55 (ssDNA)
DNA: CCCTACGGCGCTAACCAGTATGTTCCGGATTGGAGAGCTCCTGTTGCCACCGTGCTACAA
B1: the Kd in data set [1] was determined as 139 nM. Further, the binding result in data set [2] and in data set [3] was “no binding” throughout.

B2: AMC51 (ssDNA)
DNA: CCCTACGGCGCTAACCCATGCTACGAATTCGTTGTTAAACAATAGGCCACCGTGCTACAA
For the molecule B2, the binding result in data set [4] and in data set [3] was “no binding” each time. The Kd in data set [5] was 49 nM.

B3: AMC56 (ssDNA)
DNA: CCCTACGGCGCTAACCCAGCTACTCTAGAACCCATTATATTTTGGGCCACCGTGCTACAA
On to B3, for which the Kd in data set [1] came out at 65 nM. The binding result in data set [2] and in data set [3] was “no binding” each time.
